Data reported in the DeepSol protein solubility set.

Assay: soluble on expression in E. coli; label from the status in PepcDB or PDB records
For “MGSSHHHHHHSSGLVPRGSHMNVKKFPEGFLWGAATSSYQIEGAWNEDGKGESIWDRFTRIPGKIKNGDSGDVACDHYHRYEQDLDLMRQLGLKTYRFSIAWARIQPDSSRQINQRGLDFYRRLVEGLHKRDILPMATLYHWDLPQWVEDEGGWLSRESASRFAEYTHALVAALGDQIPLWVTHNEPMVTVWAGYHMGLFAPGLKDPTLGGRVAHHLLLSHGQALQAFRALSPAGSQMGITLNFNTIYPVSAEPADVEAARRMHSFQNELFLEPLIRGQYNQATLMAYPNLPEFIAPEDMQTISAPIDFLGVNYYNPMRVKSSPQPPGIEVVQVESPVTAMGWEIAPEGLYDLLMGITRTYGKLPIYITENGAAFDDQPDQSGQVNDPQRVGYFQGHIGAARRALADGVDLRGYYAWSLLDNFEWAEGYSKRFGIIYVDFETQQRTLKQSAQWYRDVIANNGLED”, the “soluble on expression in E. coli” value was “soluble”. For “MGSSHHHHHHSSGLVPRGSHMRKVKIGELINSLVSEVEAIDASDRPQGDKTKKIKAAALKYKNALFNDKRKFRGKGLEKRISANTFNSYMSRARKRFDDRLHHNFEKNVIKLSEKYPLYSEELSSWLSMPAASIRQHMSRLQAKLKEIMPLAEDLSNIKIGTKNSEAKINKLANKYPEWQFAISDLNSEDWKDKRDYLYKLFQQGSSLLEDLNNLKVNHEVLYHLQLSSAERTSIQQRWANVLSEKKRNVVVIDYPRYMQAIYDIINKPIVSFDLTTRRGMAPLAFALAALSGRRMIEIMLQGEFSVAGKYTVTFLGQAKKRSEDKGISRKIYTLCDATLFVSLVNELRSCPAAADFDEVIKGYGENDTRSENGRINAILATAFNPWVKTFLGDDRRVYKDSRAIYARIAYEMFFRVDPRWKNVDEDVFFMEILGHDDENTQLHYKQFKLANFSRTWRPNVGEENARLAALQKLDSMMPDFARGDAGVRIHETVKQLVEQDPSIKITNSTLRPFNFSTRLIPRYLEFAADALGQFVGENGQWQLKDEAPAIVLPDEEI”, the “soluble on expression in E. coli” value was “soluble”. For “MGSSHHHHHHSSGLVPRGSHVHNKVTIIGSGPAAHTAAIYLARAEIKPILYEGMMANGIAAGGQLTTTTEIENFPGFPDGLTGSELMDRMREQSTKFGTEIITETVSKVDLSSKPFKLWTEFNEDAEPVTTDAIILATGASAKRMHLPGEETYWQKGISACAVCDGAVPIFRNKPLAVIGGGDSACEEAQFLTKYGSKVFMLVRKDHLRASTIMQKRAEKNEKIEILYNTVALEAKGDGKLLNALRIKNTKKNEETDLPVSGLFYAIGHTPATKIVAGQVDTDEAGYIKTVPGSSLTSVPGFFAAGDVQDSKYRQAITSAGSGCMAALDAEKYLTSLE”, the “soluble on expression in E. coli” value was “soluble”. For “MGSSHHHHHHSSGLVPRSGHMEPRGTKRKAEKTEVEKPLNKLPRAVPSLRTQPSLYSGPFPFYRRPSELGCFSLDAQRQYHGDARALRYYSPPPINGPGPDFDLRDGYPDRYQPRDEEVQERLDHLLRWVLEHRNQLEGGPGWLAGATVTWRGHLTKLLTTPYERQEGWQLAASRFQGTLYLSEVETPAARAQRLARPPLLRELMYMGYKFEQYMCADKPGGSPDPSGEVNTNVAYCSVLRSRLGNHPLLFSGEVDCLNPQAPCTQPPSCYVELKTSKEMHSPGQWRSFYRHKLLKWWAQSFLPGVPHVVAGFRNPEGFVCSLKTFPTMEMFENVRNDREGWNPSVCMNFCAAFLSFAQSTVVQDDPRLVHLFSWEPGGPVTVSVHRDAPYAFLPSWYVETMTQDLPPLSKTPSPKD”, the “soluble on expression in E. coli” value was “soluble”. With “MGSSHHHHHHSSGRENKYFQGHMRNVALITGITGQDGSYLAEFLLEKGYEVHGIVRRSSSFNTGRIEHLYKNPQAHIEGNMKLHYGDLTDSTCLVKIINEVKPTEIYNLGAQSHVKISFDLAEYTADVDGVGTLRLLDAVKTCGLINSVKFYQASTSELYGKVQEIPQKETTPFYPRSPYGAAKLYAYWIVVNFREAYNLFAVNGILFNHESPRRGANFVTRKISRSVAKIYLGQLECFSLGNLDAKRDWGHAKDYVEAMWLMLQNDEPEDFVIATGEVHSVREFVEKSFLHIGKTIVWEGKNENEVGRCKETGKVHVTVDLKYYRPTEVDFLQGDCTKAKQKLNWKPRVAFDELVREMVHADVELMRTNPNAGS” the “soluble on expression in E. coli” value was “soluble”. With “MGSSHHHHHHSSGRENLYFQGHMAQLYFYYSAMNAGKSTALLQSSYNYQERGMRTVVYTAEIDDRFGAGKVSSRIGLSSPAKLFNQNSSLFDEIRAEHEQQAIHCVLVDECQFLTRQQVYELSEVVDQLDIPVLCYGLRTDFRGELFIGSQYLLAWSDKLVELKTICFCGRKASMVLRLDQAGRPYNEGEQVVIGGNERYVSVCRKHYKEALQVDSLTAIQERHRHD” the “soluble on expression in E. coli” value was “soluble”. With “MGSSHHHHHHSSGRENLYFQGHMSKPIVMERGVKYRDADKMALIPVKNVATEREALLRKPEWMKIKLPADSTRIQGIKAAMRKNGLHSVCEEASCPNLAECFNHGTATFMILGAICTRRCPFCDVAHGRPVAPDANEPVKLAQTIADMALRYVVITSVDRDDLRDGGAQHFADCITAIREKSPQIKIETLVPDFRGRMDRALDILTATPPDVFNHNLENVPRIYRQVRPGADYNWSLKLLERFKEAHPEIPTKSGLMVGLGETNEEIIEVMRDLRRHGVTMLTLGQYLQPSRHHLPVQRYVSPDEFDEMKAEALAMGFTHAACGPFVRSSYHADLQAKGMEVK” the “soluble on expression in E. coli” value was “soluble”. For “MGSSHHHHHHSSGRENLYFQGMPIITFLPSGKRAEVDEGKTILSAAQEIGEGIRSLCGGKGSCGKCLVVVRKGDVEILSEEAHEKFVREKGYYLACQTAVKGDVEVFIPPESRLERQQILKDFFISSKEFNPVVKVEFCSDAFLPEVLSQKGLRLACSTDVEEGDFGLVVRGKEVIDVLPDEKAFGLAVDVGTTTIVAALVDLKDGKVVNVASDYNGQIIYGEEVLSRVEFARSRKDGVEVLQRAVVESINKLIDKLLEGYATPDRIYDVVAAGNTIMTHFLVGKDVEYLFSSPDVKVEREGFVVNASEIGLKVNSNAELFCLPPVGRFVGGDIVGDILASRIVDSATISLMVDLGTNGEIVVGSEGWAMATSVASGPAFEGYEIKHGSRAVEGAIDHVEIEGEEVRYTVIGNGKPRSICGSGLIDLMAEMFKNGILDATGAMNKKHPRVRRGEDGYEFVVVEAEKSATAKDIVFTEKDVETLLKSKAAVCAGIAVLIKKAGLGLEDIDEFYIAGAFGYYINFDNAVTIGLFPELKAEVKQIGNGSLAGAYLALVSERKRKLAETIANAFAYFDLSTDADFVEEYRAALSLPGRPELFPETYAKYV”, the “soluble on expression in E. coli” value was “soluble”. In the case of “MGSSHHHHHHSSGRENLYFQGMTTAKRDTYTPETLLSVAVQVFIERGYDGTSMEHLSKAAGISKSSIYHHVTGKEELLRRAVSRALDELFGILDEEHARVGTAAERLEYVVRRMVEVLMAELPYVTLLLRVRGNTGTERWALERRREFDHRVAALLKDAAAEGDVRADVEVRLATRLVFGMINSIVEWYRPEGPDGRSDASGASGVSGAGEREVVDAVARLVFGGLRKAS”, the “soluble on expression in E. coli” value was “soluble”. In the case of “MGSSHHHHHHSSGRENLYFQGMVSVTFEPVGKKVEDEPDTILEIARRNGVLIRSDCGGKGVCGKCKVVVVDYRGSLSDITDHERKHLIEEEISKGYRLACQARVEEGRATIFIPPESRLERRKVAGLTIEKEVELNPAVRKVYAEIQPPSIEDQLPDYDRLTRALGDFSLDLETLSEMPKLLREAEWRVTATFWNGRLIDLEKGDVSDRCYGVAVDVGSSKIICHLVDLKSGETIATGYSDNPQVAYGEDIVSRITYASKSAENRKRLQTVVVETVNQIIAELCNESGVDLRHVYEVMIVGNSVMHHLFFGIEPRFIGVSPFTPAVRRGVSFPAEDVGLRINRKGYVSSLPLVAGFVGADAVANIAITGIHKAEEISMVIDIGTNTEIVIGNREKLGVCSAPSGPAFEGAHITFGMKAISGAIDSVRIERDEVIYTTIDNAKAKGLCGTGLIDLIAELYRNGIINRNGKFVKDHSRIIVDGVPKFVVAKAEETEFGKPITVSEKDINELLMAKGAIKSGWMILSERLGIEPDKIERIYLAGSFGRHINVENAKVIGLLPDIPSEKITFAGDTAVGGAKMALKSVRVRDEMEDVVSRLNYVELSVEKNFYSVFVRAIPI”, the “soluble on expression in E. coli” value was “soluble”. In the case of “MGSSHHHHHHSSGRENLYFQGPSNSDAAHAFWSTQPVPQTEDEDEKIVFAGPMDEPKTVADIPEEPYPIASTFEWWTPNMEAADDIHAIYELLRDNYVEDDDSMFRFNYSEEFLQWALCPPNYIPDWHVAVRRKADKKLLAFIAGVPVTLRMGTPKYMKVKAQEKGEGEEAAKYDEPRHICEINFLCVHKQLREKRLAPILIKEATRRVNRTNVWQAVYTAGVLLPTPYASGQYFHRSLNPEKLVEIRFSGIPAQYQKFQNPMAMLKRNYQLPSAPKNSGLREMKPSDVPQVRRILMNYLDSFDVGPVFSDAEISHYLLPRDGVVFTYVVENDKKVTDFFSFYRIPSTVIGNSNYNLLNAAYVHYYAATSIPLHQLILDLLIVAHSRGFDVCNMVEILDNRSFVEQLKFGAGDGHLRYYFYNWAYPKIKPSQVALVML”, the “soluble on expression in E. coli” value was “soluble”. For “MGTASYPDPEIRALAEKITANATSDLEKVKAIESYLKNNYINTYVERTDVKEFLFKTKRGTAREFATAFVLLAQSIGIPARAVFGYLADPVETNQTIFASDAYVWAEVRFKEGWMEFDPAPEGRG”, the “soluble on expression in E. coli” value was “soluble”. With “MGTNLPTEVGQILSAPTSIDYNYPTTGVWDASYDICLDSTPKTTGVNQQEIMIWFNHQGSIQPVGSPVGNTTIEGKNFVVWDGSNGMNNAMAYVATEPIEVWSFDVMSFVDHTATMEPITDSWYLTSIRAGLEPWSDGVGLGVDSFSAKVN” the “soluble on expression in E. coli” value was “soluble”. With “MGTYVEPSKLSYGEYLESWFNTKRHSVGIQTAKVLKGYLNSRIIPSLGNIKLAKLTSLHMQNYVNSLRDEGLKRGTIEKIIKVIRNSLEHAIDLELITKNVAAKTKLPKADKEELEHHHHHH” the “soluble on expression in E. coli” value was “not soluble”. With “MGVATMVTDKYQKCIDACNRCSQACYECFKACLNEPDVNARRTCISILFECAQMCQMSSALMSMDAQFAIDHCKLCSVICDKCAQECSMFQDPHCQKCANECRTCSNECRMMSGMLEHHHHHH” the “soluble on expression in E. coli” value was “soluble”. With “MGVLDHVSEYFDCSHGSSKRHKSLQTVDVRVLIDCEGCERKVRRALEGMRGIRDVTIEPNAQKVTVVGYVEPNKVVARIIHRTGKRAELYPFVPYDVVAHPYASGVYDNRAPTGYVRNTEYDPHVSRLARASSTEVRYTTAFSDENASACVVM” the “soluble on expression in E. coli” value was “soluble”. With “MHAIDFKEIQEKLSDGFRPWQRSFQFWARATDIYTGYKVFQLRMNFVKDVNKHEEMWERQHELAAHKVYSMCSDLGGFFLKIAQILGKPDLAPAAWVRKLVTLCDQAPATPFDAVRVVLEKELGKSIEQVFETFDEKPLGSASIAQVQHPGVEKLMMVDIRNLQIFALYMQKTDIKFDLFSMTKEIEKQIGYEFDFKREANAMEKIRRFLYDNNRKSPVLVPRVFPNLVTRKVLVMEFMNGIPILSLGDEMAKRGINPHGKMAEAAKFNILHSLSQAYGQMILKSGFFHADPHPGNILIGKGSEASHLLELGIATVAKCKNEQQELLQLAKTMFDTEMPPGTTTLQPFSEDSSIKKISVEAFPEELFSVLRTVVLLRGLSVGIGINYSCAQHWRAMAEEALHASGRLSTG” the “soluble on expression in E. coli” value was “soluble”. In the case of “MHCSLYTRFNVENAGGDFSVGGARVCFRIPENPCSPRPAVAGRANPLPPVADFGMKEVRTKKKKHMTNDVNGMKKKCGRPALGRTRKLTRGVTVKFSPVSYEALRFRAGKSGRSLAVYIREAALAATVTARHTPEENALLRSLAGMANNLNQLTKLSHQTGFYRTRLLIEGLLGKLKRIMDDYRPKGG”, the “soluble on expression in E. coli” value was “not soluble”. In the case of “MHDHMITFQLATHFLSRIALRLEYLFKTINEACNESHEVIHRFALKNIIEIVEIVEKPELKSRFIKELIRIEHVLKKANLLNHSELFDDLETQIHVLNHVPGRFSNKIHDDEFLKTLRQIHHPNTKECEFNSPHLVLWFDSDPLMRQKTISQWVSCLKDLEDTVKIYLSLLRGVTQYTPIRANNGFYQHSLSPKSLNHLILLRIDKKLKMIPKIQLGHHSLTIRLYELVTGQEIRDKTIEMEIAFCQI”, the “soluble on expression in E. coli” value was “not soluble”.
